Reference: patent publication US20160090402A1 (BIOMERIEUX, published 2016)

Assays:
[1] = biological target: T1, hASCT2 receptor (human type 2 sodium-dependent neutral amino acid transporter) (human, UniProt Q15758 1-541); experiment: flow cytometry on XChASCT2 cells, anti-RGS-His detection
T1 construct: whole, on cells
T1 sequence: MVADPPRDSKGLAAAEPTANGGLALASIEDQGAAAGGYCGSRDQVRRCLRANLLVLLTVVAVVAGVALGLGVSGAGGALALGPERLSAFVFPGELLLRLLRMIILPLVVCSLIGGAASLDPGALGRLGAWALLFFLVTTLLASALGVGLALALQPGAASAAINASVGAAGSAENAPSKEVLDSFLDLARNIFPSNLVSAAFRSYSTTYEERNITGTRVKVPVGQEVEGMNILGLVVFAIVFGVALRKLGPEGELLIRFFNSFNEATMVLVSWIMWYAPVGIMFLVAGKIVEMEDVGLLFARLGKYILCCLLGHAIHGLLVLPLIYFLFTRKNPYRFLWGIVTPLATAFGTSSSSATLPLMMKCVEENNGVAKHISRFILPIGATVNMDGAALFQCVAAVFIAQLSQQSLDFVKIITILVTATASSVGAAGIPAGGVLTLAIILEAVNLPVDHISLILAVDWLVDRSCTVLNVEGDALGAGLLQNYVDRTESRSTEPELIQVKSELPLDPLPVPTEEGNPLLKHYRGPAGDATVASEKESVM

hASCT1 receptor = biological target: T2, hASCT1 receptor (human, UniProt P43007 1-532); experiment: flow cytometry on XChASCT1 cells, anti-RGS-His detection
T2 construct: whole, on cells
T2 sequence: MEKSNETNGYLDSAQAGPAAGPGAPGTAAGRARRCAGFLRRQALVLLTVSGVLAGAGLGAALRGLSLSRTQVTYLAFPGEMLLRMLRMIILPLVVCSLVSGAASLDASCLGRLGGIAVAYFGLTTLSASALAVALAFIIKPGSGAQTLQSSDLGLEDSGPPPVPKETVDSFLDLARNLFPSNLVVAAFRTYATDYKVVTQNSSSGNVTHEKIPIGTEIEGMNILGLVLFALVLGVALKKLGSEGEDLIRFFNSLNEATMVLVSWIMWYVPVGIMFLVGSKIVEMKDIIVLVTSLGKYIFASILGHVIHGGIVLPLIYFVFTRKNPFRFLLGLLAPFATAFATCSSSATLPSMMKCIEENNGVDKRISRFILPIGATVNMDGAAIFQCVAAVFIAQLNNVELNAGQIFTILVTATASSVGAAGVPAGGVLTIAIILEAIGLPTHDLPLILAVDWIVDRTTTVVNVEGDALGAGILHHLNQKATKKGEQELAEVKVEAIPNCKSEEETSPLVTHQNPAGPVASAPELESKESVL

[2] = biological target: T1, hASCT2 receptor (human type 2 …); experiment: flow cytometry on XChASCT2 cells and on TE671 and TE671galv cells, anti-RGS-His detection

Binder	binding result [1]	binding result (hASCT1 receptor)	binding result [2]
soluble recombinant envelope protein Env-Gp60 (Gp60, 1-435) (ligand, range 21-435; Used as filtered HEK293T supernatant; the construct is printed as 1-435; also called soluble envelope) not shown	binds		
soluble recombinant SU subunit of the HERV-W envelope (EnvSU, 1-317) (ligand, range 21-317; Used as filtered HEK293T supernatant; also called soluble SU; SU subunit (1-317)) APPPCRCMTSSSPYQEFLWRMQRPGNIDAPSYRSLSKGTPTFTAHTHMPRNCYHSATLCMHANTHYWTGKMINPSCPGGLGVTVCWTYFTQTGMSDGGGVQDQAREKHVKEVISQLTRVHGTSSPYKGLDLSKLHETLRTHTRLVSLFNTTLTGLHEVSAQNPTNCWICLPLNFRPYVSIPVPEQWNNFSTEINTTSVLVGPLVSNLEITHTSNLTCVKFSNTTYTTNSQCIRWVTPPTQIVCLPSGIFFVCGTSAYRCLNGSSESMCFLSFLVPPMTIYTEQDLYSYVISKPAAARRGSHHHHHH		binds	binds
